Data reported in patent US20140371148A1.
No end group written: not given here.

Target: Recombinant DPP-IV
Assay: cell-based or functional assay

Row | Binder | DPP-IV IC50
1 | YAEGTFISDYSIAMDKIHQQDFVNWLLAQKPSSGAPPPS (modifications not checked) [N-(γ-L-Glu-(2-(S)-cyano pyrrolidyl)-Ado-Ado) GIP(1-30)-exendin-4(31-39)] | 110 nM
2 | YAEGTFISDYSIALDKIHQQDFVNWLLAQKPSSGAPPPS-{Ado-Lys(N-ε-(2-(S)-cyano pyrrolidyl))} [[Leu^14] GIP(1-30)-exendin-4(31-39)-Ado-Lys-N-ε-(2-(S)-cyano pyrrolidyl)] | 82 nM
3 | YAEGTFISDYSIAMDKIHQQDFVNWLLAQKPSSGAPPPS (modifications not checked) [[D-Ala^2] GIP(1-30)-exendin-4(31-39)-Ado-Lys-N-ε-(2-(S)-cyano pyrrolidyl)] | 85 nM
